# Patent publication US8299097B2, “Methods for treating inflammatory disorders” (The Brigham and Women's Hospital, Inc., priority 2008, dated 2012)
# Columns and labels:
# LAD2 cells [1] = assay: MIP-1β generation by LAD2 cells (ELISA); format: cell-based, human; conditions: apyrase 10 μM, LTE4 500 nM, 6 h
# Experimental: FIG. 2. Requirement for P2Y12 receptors in LTE4-mediated LAD2 cell activation. 2A. Calcium flux of LAD2 cells stimulated with the indicated agonists (500 nM) in the presence or absence of the P2Y12 receptor-selective antagonist 2-MeSAMP (100 μM). […] 2B. […] Cells sensitized overnight with IgE and challenged with anti-IgE were used as the positive control. 2C. […] Results in 2B and 2C are mean±SEM from three independent experiments each. 2D. Effect of shRNA-mediated knockdown of P2Y12 receptor mRNA expression by LAD2 cells.
# (§1) FIG. 9. Effect of apyrase treatment on LT-mediated activation of LAD2 cells. 9A. […] Concentrations of MIP-1β were measured by ELISA. 9B. […] Lysates were resolved by SDS-PAGE and probed with the indicated antibodies against phospho- and total ERK. Results in 9A are the mean±½ range from two experiments, while 9B is representative of two experiments.
# (§2) Pre-treatment of the LAD2 cells with 2-MesAMP blocked the LTE4-mediated increment in MIP-1β production by >50% (FIG. 2B). […] To exclude potential off-target effects of the inhibitors, samples of LAD2 cells were transfected with lentiviruses encoding a P2Y12 sequence-specific shRNA, a CysLT1R-specific shRNA, or an empty vector control before stimulation. […] LTE4- and LTD4-dependent production of PGD2 were abrogated by the knockdowns of P2Y12 and CysLT1R, respectively (FIG. 2C, bottom). Neither GPCR knockdown altered MIP-1β generation or PGD2 production in response to IgE-anti-IgE (FIG. 2C). LTE4-mediated MIP-1β generation (FIG. 9A) and ERK activation (FIG. 9B) were not altered by treatment of LAD2 cells with apyrase to degrade extracellular ADP.
# The concentration of MIP-1β was measured by an ELISA (ENDOGEN®). PGD2 was quantitated by a PGD2-methoxylamine hydrochloride (PGD2-MOX) assay.
# LAD2 cells [2] = assay: ERK activation in LAD2 cells with apyrase; format: cell-based, human; conditions: LTE4 500 nM, 15 minutes
# Experimental: as §1, §2
# After stimulation with the respective agonists, LAD2 cells and hMCs (0.5×10^6) were lysed with lysis buffer (BD Bioscience) supplemented with protease inhibitor cocktail (Roche) and sodium vanadate (1 mM). Lysates were subjected to 4-12% SDS-PAGE and transferred to PVDF membranes. […]
# human P2Y12 = human P2Y12 (Homo sapiens, UniProt Q9H244); assay: ERK activation (phosphorylation immunoblot) in P2Y12-expressing CHO cells; format: cell-based; parameters: polyhistidine (HIS) tag (C); expressed in transfected cells; conditions: 2-MesAMP 100 μM, MK571 1 μM
# human P2Y12, sequence (Q9H244 whole entry): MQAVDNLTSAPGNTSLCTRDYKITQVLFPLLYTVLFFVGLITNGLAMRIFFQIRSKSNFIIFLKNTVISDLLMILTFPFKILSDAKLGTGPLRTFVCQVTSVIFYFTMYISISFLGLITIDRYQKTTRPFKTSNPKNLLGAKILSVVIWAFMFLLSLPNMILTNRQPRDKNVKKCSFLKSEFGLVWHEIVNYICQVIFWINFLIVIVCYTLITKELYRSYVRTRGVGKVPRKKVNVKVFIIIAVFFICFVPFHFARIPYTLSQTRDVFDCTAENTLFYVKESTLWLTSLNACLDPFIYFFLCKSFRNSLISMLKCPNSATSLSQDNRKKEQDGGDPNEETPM
# Experimental: FIG. 1. Activation by recombinant human P2Y12 receptors in response to cys-LTs. The human P2Y12 receptor cDNA was cloned in forward and reverse orientation into the expression vector pEF1/His B and transfected into CHO cells using Fugene HD reagent. Stably-expressing clones were selected using G418 (1000 μg/ml), and expression of the construct was confirmed by cytofluorographic detection of the HIS tag. 1A. […] Results in second experiment were identical. 1B. SDS-PAGE immunoblots showing phosphorylation of ERK2 by CHO cells stably expressing human P2Y12 receptors in reverse (negative control) or forward orientations. […] The blots were stripped and re-probed with an antibody (Ab) recognizing total ERK1 and ERK2. […] 1C. Effect of the selective P2Y12 receptor antagonist 2-MesAMP (MeS) on ligand-induced ERK phosphorylation. P2Y12 receptor expressing CHO cells were stimulated with the same doses of agonists used in 1A, in the absence or presence of 2-MesAMP (100 μM). 1D. Comparison of P2Y12 receptor-mediated responses to cys-LTs with those of recombinant human CysLT1R and CysLT2R expressed in CHO cells, and the effect of the CysLT1R antagonist MK571 (1 μM). Data in 1B-1D are from individual experiments that were repeated at least 3 times with similar results.
# FIG. 8. […] Cells were stably transfected with the human P2Y12 construct and stimulated for 15 minutes with the indicated ligand concentrations. […] Results in a second experiment were similar.
# A P2Y12 receptor cDNA was amplified by reverse transcriptase polymerase chain reaction (RT-PCR) from RNA extracted from primary hMCs and cloned into a mammalian expression vector. Expression was confirmed by detection of a histidine (HIS) tag by flow cytometry. Another cohort of CHO cells were stably transfected with a P2Y12 receptor construct in reverse orientation as a negative control. […] The cys-LT-induced ERK activation blocked by pre-treatment of the cells with pertussis toxin (PTX), was attenuated by treatment with the P2Y12 receptor-selective antagonist 2-methylthioadenosine monophosphate (2-MesAMP) (FIG. 1C), and was resistant to MK571, an inhibitor that blocks CysLT1R and some P2Y receptors (Mamedova, L., et al. 2005. Biochem. Pharmacol. 71:115-125). […] These responses were resistant to PTX and 2-MesAMP, and susceptible to MK571 in the case of the CysLT1R transfectants.
# A human P2Y12 receptor cDNA was amplified by 30 cycles of PCR from reverse-transcribed total RNA extracted from primary cord blood hMCs. The primer sequences were 5′-[…] (SEQ ID NO: 1) and 3′-[…] (SEQ ID NO: 2). The fragment was cloned into a TA vector (INVITROGEN™). After verifying the nucleotide sequence, the fragment was subcloned into the multiple cloning site of the expression vector pEF1/His B, encoding a C-terminal polyhistidine (HIS) tag. […]
# human CysLT1R = target: T1, human CysLT1R (Homo sapiens, UniProt Q9Y271); assay: ERK activation in CysLT1R CHO transfectants; format: cell-based
# T1 construct: expressed in transfected cells
# T1 sequence (Q9Y271 1-337): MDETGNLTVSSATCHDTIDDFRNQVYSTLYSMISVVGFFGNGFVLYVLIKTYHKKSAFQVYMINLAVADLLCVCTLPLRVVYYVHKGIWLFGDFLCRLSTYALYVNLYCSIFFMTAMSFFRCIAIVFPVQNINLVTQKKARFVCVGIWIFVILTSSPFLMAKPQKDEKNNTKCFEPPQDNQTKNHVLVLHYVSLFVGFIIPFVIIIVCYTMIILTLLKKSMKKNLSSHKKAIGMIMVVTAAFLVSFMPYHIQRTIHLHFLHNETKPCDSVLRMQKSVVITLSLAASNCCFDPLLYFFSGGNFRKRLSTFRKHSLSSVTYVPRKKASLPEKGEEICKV
# Experimental: (§3) FIG. 1. Activation by recombinant human P2Y12 receptors in response to cys-LTs. The human P2Y12 receptor cDNA was cloned in forward and reverse orientation into the expression vector pEF1/His B and transfected into CHO cells using Fugene HD reagent. Stably-expressing clones were selected using G418 (1000 μg/ml), and expression of the construct was confirmed by cytofluorographic detection of the HIS tag. 1A. […] 1B. SDS-PAGE immunoblots showing phosphorylation of ERK2 by CHO cells stably expressing human P2Y12 receptors in reverse (negative control) or forward orientations. […] The blots were stripped and re-probed with an antibody (Ab) recognizing total ERK1 and ERK2. […] 1C. Effect of the selective P2Y12 receptor antagonist 2-MesAMP (MeS) on ligand-induced ERK phosphorylation. P2Y12 receptor expressing CHO cells were stimulated with the same doses of agonists used in 1A, in the absence or presence of 2-MesAMP (100 μM). 1D. Comparison of P2Y12 receptor-mediated responses to cys-LTs with those of recombinant human CysLT1R and CysLT2R expressed in CHO cells, and the effect of the CysLT1R antagonist MK571 (1 μM).
# (§4) A P2Y12 receptor cDNA was amplified by reverse transcriptase polymerase chain reaction (RT-PCR) from RNA extracted from primary hMCs and cloned into a mammalian expression vector. Expression was confirmed by detection of a histidine (HIS) tag by flow cytometry. […]
# human CysLT2R = target: T2, human CysLT2R (Homo sapiens, UniProt Q9NS75); assay: ERK activation in CysLT2R CHO transfectants; format: cell-based
# T2 construct: expressed in transfected cells
# T2 sequence (Q9NS75 1-346): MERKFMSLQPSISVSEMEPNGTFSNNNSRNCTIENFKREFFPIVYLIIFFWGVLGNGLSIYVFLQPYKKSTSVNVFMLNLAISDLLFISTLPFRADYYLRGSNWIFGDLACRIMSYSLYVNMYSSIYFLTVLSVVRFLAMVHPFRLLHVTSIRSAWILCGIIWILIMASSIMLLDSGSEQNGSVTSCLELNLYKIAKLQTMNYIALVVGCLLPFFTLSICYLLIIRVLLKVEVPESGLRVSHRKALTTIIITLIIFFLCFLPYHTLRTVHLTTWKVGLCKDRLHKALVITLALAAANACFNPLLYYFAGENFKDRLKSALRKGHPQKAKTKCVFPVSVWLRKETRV
# Experimental: as §3, §4
substance,measurement,setting,value
apyrase,effect on LTE4-mediated MIP-1β generation,LAD2 cells [1],not altered
same,effect on LTE4-mediated ERK activation,LAD2 cells [2],not altered
pertussis toxin,effect on cys-LT-induced ERK activation,human P2Y12,blocked
same,effect on cys-LT-induced ERK activation,human CysLT1R,resistant
same,effect on cys-LT-induced ERK activation,human CysLT2R,resistant
